From patent publication JP2024044204A (dated 2024)
Substitutions are numbered along the chain they refer to. Names and notes keep the numbering of the source.

What was measured:
[1] = target: T1, SARS-CoV-2 RBD, Omicron strain (B.1.1.529 (BA.1)) (SARS-CoV-2 Omicron strain B.1.1.529 …, UniProt P0DTC2 319-541); assay: ELISA of culture supernatant on Omicron RBD (Fig. 2-1)
T1 construct: also called Omicron-derived RBD; RBD protein (Omicron type)

[2] = target: T1, SARS-CoV-2 RBD, Omicron strain …; assay: ELISA on Omicron RBD, 300 ng/ml antibody (Fig. 2-2)
[3] = target: T1, SARS-CoV-2 RBD, Omicron strain …; assay: ELISA on Omicron RBD (supernatant, Fig. 2-1; 300 ng/ml, Fig. 2-2)

B1: 28G_1-GN (UT28K S55G) (antibody, V domains shown)
VH: QMQLVQSGPEVKKPGTSVKVSCKASGFTFSISAVQWVRQARGQRLEWIGWIVVGGGNTNYAQKFQERVTITRDMSTSTAYMELSSLRFEDTAVYYCAAPYCGGDCSDGFDIWGQGTMVTVSS
VL: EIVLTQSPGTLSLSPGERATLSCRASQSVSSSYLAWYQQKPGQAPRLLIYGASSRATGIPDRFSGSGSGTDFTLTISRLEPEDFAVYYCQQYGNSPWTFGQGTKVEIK
- binding result [1]: no binding

B2: UT28K N57E (antibody, V domains shown)
VH: B1 VH with G55S, N57E
VL: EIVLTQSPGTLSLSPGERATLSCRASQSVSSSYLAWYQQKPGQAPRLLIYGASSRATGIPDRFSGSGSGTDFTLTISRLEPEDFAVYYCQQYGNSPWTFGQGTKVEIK
- binding result [2]: no binding (tested: 300 ng/ml (Fig. 2-2))

B3: 28G_3-SR (UT28K N57R) (antibody, V domains shown)
VH: B1 VH with G55S, N57R
VL: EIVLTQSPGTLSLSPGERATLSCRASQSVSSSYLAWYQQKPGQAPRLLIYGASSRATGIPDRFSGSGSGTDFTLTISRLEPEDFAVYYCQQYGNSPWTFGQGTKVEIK
- binding result [3]: no binding (tested: 300 ng/ml (Fig. 2-2))

B4: 28G_5-SG (UT28K N57G) (antibody, V domains shown)
VH: B1 VH with G55S, N57G
VL: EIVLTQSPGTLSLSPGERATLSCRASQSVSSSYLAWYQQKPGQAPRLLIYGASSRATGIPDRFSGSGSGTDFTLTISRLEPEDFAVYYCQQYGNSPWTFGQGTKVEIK
- binding result [3]: no binding (tested: 300 ng/ml (Fig. 2-2))

B5: 4_12-SS/WT (UT28K N57S) (antibody, V domains shown)
VH: B1 VH with G55S, N57S
VL: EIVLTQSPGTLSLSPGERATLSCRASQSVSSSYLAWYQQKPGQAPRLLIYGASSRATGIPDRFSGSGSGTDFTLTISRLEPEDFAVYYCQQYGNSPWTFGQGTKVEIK
- binding result [3]: no binding (tested: 300 ng/ml (Fig. 2-2))

B6: 28G_6-GR (UT28K S55G, N57R) (antibody, V domains shown)
VH: B1 VH with N57R
VL: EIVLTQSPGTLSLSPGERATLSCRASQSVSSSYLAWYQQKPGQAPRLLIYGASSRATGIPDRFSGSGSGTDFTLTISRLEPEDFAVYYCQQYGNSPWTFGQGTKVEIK
- binding result [1]: no binding

B7: 28G_8-GG (UT28K S55G, N57G) (antibody, V domains shown)
VH: B1 VH with N57G
VL: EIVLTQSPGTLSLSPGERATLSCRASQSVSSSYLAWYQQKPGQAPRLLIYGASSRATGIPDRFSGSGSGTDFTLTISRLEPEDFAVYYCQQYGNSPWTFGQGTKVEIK
- binding result [1]: no binding
